Results: US20150290319A1 (EMERGENT BIOSOLUTIONS CANADA, published 2015)
Positions count from the first letter of the chain named.

Experiments:
bovine serum albumin = biological target: T1, bovine serum albumin (bovine, UniProt P02769 25-607); assay: Western blot (FIGS. 4-6)
T1 construct: also called BSA; commercial BSA

[1] = biological target: T2, Clostridium difficile toxin B (whole toxin B) (Clostridium difficile); assay: cell-based or functional assay
[2] = biological target: T3, Clostridium difficile toxin A (whole toxin A) (Clostridium difficile, UniProt P16154 1-2710); assay: ELISA on coated whole toxin A (FIG. 1)
T3 construct: mature; also called TcdA

[3] = biological target: T4, recombinant toxin B fragment 4 (Clostridium difficile, UniProt P18177 1777-2366); assay: ELISA, coated antigen, mAb 0.1-1 µg/ml (FIG. 1)
[4] = biological target: T5, recombinant toxin B fragment 1 (Clostridium difficile, UniProt P18177 1-546); assay: Western blot, 5 ug protein per lane, mAb at 5 ug/ml
[5] = biological target: T2, Clostridium difficile toxin B (whole …); assay: biolayer interferometry (Octet QKe); biotinylated antibody on streptavidin sensor, toxin B 50-0.78 nM
[6] = biological target: T5, recombinant toxin B fragment 1; assay: Western blot, 2 ug protein per lane, mAb at 2 ug/ml
[7] = biological target: T4, recombinant toxin B fragment 4; assay: ELISA, coated antigen, antibody at 0.5 ug/ml, OD405 at 15 min
[8] = biological target: T5, recombinant toxin B fragment 1; assay: Western blot, 2 ug protein per lane, mAb at 2 ug/ml; remark: listed apart in the source
[9] = biological target: T2, Clostridium difficile toxin B (whole …); assay: cell-based or functional assay; remark: listed apart in the source
[10] = biological target: T2, Clostridium difficile toxin B (whole …); assay: BLI (Octet QKe), mAb on SA sensor, toxin B analyte, model 1:1
[11] = biological target: T2, Clostridium difficile toxin B (whole …); assay: BLI (Octet QKe), mAb on SA sensor, toxin B analyte, model 1:1; head prints KD (nM) but Kdis/Kon gives this number in M
[12] = biological target: T2, Clostridium difficile toxin B (whole …); assay: BLI (Octet QKe), mAb from CHOK1SV, toxin B; column kdis2 (1/s)
[13] = biological target: T2, Clostridium difficile toxin B (whole …); assay: BLI (Octet QKe), mAb on SA sensor, toxin B analyte, model 2:1
[14] = biological target: T2, Clostridium difficile toxin B (whole …); assay: BLI (Octet QKe), mAb on AHC sensor, toxin B analyte, model 2:1
[15] = biological target: T4, recombinant toxin B fragment 4; assay: Western blot, 2 ug protein per lane, mAb at 2 ug/ml
[16] = biological target: T2, Clostridium difficile toxin B (whole …); assay: BLI (Octet QKe), mAb on SA sensor, toxin B analyte, model 2:1, first of three rows
[17] = biological target: T2, Clostridium difficile toxin B (whole …); assay: BLI (Octet QKe), mAb on SA sensor, toxin B analyte, model 2:1, third of three rows
[18] = biological target: T2, Clostridium difficile toxin B (whole …); assay: BLI (Octet QKe), mAb on AHC sensor, toxin B analyte, model 2:1; head prints KD (nM) but Kdis/Kon gives this number in M
[19] = biological target: T4, recombinant toxin B fragment 4; assay: Western blot, 3 ug protein per lane, mAb from CHOK1SV at 5 ug/mL
[20] = biological target: T5, recombinant toxin B fragment 1; assay: ELISA, coated antigen, antibody at 0.5 ug/ml, OD405 at 15 min

T4 sequence (P18177 1777-2366 limits assumed): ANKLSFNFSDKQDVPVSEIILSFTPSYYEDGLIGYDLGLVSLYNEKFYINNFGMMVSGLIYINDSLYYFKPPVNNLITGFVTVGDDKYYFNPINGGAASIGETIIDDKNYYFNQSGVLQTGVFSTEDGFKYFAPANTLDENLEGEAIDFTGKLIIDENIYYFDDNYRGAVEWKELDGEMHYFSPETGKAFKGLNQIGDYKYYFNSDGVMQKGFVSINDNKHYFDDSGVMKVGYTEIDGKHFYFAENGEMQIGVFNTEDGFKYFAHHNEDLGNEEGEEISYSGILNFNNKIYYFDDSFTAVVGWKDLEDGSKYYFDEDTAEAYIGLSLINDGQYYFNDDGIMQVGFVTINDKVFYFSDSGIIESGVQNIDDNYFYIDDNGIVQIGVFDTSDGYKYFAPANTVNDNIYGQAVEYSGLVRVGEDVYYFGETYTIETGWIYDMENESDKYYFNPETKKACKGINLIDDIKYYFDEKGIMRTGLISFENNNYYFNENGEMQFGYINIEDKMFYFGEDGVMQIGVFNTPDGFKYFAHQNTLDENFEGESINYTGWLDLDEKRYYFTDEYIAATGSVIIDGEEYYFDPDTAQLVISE
T1 sequence (P02769 25-607 limits assumed): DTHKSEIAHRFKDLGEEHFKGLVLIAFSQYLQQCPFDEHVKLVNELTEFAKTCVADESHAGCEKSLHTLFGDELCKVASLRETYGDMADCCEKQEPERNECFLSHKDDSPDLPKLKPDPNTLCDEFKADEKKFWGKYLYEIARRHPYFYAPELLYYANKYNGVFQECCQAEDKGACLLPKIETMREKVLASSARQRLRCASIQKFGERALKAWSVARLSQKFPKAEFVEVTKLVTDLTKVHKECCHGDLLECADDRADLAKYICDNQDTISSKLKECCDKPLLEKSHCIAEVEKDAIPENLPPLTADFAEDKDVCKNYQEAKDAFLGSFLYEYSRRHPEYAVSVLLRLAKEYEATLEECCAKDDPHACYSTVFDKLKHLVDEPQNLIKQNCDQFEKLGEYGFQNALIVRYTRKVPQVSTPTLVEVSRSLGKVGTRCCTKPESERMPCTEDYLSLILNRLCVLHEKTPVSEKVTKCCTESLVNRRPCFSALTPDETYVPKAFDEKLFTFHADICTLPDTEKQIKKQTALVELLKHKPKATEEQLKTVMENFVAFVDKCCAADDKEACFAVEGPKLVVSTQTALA
T3 sequence (P16154 whole entry): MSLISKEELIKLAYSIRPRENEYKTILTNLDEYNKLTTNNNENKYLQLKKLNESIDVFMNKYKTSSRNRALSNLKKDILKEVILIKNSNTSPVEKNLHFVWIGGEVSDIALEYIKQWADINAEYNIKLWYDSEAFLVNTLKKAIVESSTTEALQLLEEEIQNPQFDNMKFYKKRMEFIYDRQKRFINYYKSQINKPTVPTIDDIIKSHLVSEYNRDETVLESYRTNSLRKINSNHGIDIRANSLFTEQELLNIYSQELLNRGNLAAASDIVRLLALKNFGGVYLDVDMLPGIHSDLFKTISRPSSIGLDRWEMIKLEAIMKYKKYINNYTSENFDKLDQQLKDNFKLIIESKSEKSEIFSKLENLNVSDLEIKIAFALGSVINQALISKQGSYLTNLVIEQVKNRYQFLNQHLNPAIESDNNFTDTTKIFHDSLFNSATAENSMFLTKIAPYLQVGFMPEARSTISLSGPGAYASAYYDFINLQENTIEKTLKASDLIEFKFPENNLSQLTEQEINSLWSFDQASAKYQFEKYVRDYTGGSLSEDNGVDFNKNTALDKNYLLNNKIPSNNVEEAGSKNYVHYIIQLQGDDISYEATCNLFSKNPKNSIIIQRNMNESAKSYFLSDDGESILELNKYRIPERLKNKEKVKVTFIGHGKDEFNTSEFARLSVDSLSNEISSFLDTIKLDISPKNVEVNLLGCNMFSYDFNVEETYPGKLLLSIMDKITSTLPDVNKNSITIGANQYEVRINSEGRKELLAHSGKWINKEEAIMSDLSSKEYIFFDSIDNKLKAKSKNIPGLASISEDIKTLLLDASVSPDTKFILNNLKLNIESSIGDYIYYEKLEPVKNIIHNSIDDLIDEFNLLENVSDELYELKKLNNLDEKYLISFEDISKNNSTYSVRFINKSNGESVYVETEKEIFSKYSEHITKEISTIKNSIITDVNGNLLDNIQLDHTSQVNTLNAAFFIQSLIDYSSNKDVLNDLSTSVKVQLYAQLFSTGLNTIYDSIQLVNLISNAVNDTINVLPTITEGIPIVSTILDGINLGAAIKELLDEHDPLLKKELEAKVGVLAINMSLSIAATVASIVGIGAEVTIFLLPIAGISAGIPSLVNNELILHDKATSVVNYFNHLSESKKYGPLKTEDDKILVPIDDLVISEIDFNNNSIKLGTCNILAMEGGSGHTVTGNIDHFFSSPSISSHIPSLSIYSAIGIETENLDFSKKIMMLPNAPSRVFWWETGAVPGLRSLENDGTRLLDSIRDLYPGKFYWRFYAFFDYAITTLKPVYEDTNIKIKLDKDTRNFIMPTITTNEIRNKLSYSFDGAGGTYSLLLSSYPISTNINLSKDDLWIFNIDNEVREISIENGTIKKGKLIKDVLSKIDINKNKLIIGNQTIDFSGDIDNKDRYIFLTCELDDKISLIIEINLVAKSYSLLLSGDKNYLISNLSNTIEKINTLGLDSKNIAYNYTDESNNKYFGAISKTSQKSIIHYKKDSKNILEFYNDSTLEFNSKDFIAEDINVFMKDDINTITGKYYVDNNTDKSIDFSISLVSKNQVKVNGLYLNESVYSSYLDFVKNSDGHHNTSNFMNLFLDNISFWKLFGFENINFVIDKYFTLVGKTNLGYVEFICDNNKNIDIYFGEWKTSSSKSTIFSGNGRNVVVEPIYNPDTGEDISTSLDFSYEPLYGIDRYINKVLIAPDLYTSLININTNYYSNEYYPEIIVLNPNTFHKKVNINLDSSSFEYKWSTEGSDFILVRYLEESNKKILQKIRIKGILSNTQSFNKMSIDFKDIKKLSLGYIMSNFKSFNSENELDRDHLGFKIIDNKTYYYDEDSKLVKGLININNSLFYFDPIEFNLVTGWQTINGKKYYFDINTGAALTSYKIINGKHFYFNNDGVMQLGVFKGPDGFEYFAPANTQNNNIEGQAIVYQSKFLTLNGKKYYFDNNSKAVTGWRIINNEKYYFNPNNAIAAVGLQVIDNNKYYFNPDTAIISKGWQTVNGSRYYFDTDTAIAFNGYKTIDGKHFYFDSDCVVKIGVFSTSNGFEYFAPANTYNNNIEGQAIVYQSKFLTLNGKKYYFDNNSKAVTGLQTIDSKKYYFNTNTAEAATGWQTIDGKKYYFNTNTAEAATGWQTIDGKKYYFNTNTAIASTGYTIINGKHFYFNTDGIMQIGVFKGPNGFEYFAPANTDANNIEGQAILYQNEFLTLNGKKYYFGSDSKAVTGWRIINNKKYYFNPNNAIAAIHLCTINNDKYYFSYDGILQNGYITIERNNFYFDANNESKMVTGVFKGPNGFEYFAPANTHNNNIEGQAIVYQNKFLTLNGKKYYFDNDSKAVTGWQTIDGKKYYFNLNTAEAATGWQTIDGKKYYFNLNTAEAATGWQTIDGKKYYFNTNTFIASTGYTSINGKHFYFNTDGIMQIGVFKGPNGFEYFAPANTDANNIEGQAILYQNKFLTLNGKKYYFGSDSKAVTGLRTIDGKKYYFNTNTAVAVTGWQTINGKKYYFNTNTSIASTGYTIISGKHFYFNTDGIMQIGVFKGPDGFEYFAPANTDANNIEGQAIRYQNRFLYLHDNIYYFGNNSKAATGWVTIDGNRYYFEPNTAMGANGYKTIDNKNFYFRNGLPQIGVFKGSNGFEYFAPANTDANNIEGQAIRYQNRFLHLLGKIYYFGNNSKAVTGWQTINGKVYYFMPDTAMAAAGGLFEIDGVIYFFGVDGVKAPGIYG
T5 sequence (P18177 1-546 limits assumed): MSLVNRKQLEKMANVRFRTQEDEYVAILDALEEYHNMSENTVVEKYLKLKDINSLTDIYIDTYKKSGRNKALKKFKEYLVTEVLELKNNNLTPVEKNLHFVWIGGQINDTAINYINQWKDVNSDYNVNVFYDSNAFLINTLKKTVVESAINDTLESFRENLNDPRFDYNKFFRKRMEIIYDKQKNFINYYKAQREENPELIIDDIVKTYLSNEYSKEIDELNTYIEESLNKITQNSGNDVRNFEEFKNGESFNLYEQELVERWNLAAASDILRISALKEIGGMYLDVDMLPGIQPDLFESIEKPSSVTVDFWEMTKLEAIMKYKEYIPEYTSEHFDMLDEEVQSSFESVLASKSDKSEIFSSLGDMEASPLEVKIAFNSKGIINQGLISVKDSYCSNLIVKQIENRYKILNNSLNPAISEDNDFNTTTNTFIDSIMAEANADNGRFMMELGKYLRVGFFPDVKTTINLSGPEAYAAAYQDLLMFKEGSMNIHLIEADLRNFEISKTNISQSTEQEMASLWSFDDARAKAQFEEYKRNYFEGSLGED

B1: CAN46G24 (antibody, V domains shown)
VH: EVQLLQSGPELVKPGTSVKISCKASGYSFTGYYIHWVKQTHVKSLEWVGRIFPYNGAASYNQNFKGKATLTVDKSSSTAYMELHSLTSEDSAVYFCARWLRVYFDYWGQGTTLTVSS
VL: EIVLTQSPAIMSTSPGEKVTMSCSASSSVTYMHWYQQKSITSPKLWIYETSKLASGVPGRFSGSGSGNSYSLTISSMEAEDVATYYCFQGSGYPFTFGSGTKLEIK
notes: also called CAN46G24-2-3; murine CAN46G24
For B1, the binding result (bovine serum albumin) was “no binding (tested: 2 µg/ml to 5 µg/ml)”, the “Mean EC50, neutralization of TcdB on HT-29 cells (xCELLigence)” value (shortened to “Mean EC50, neutralization of TcdB”) [1] was 44.2 µg/mL and the binding result [2] was “no binding (tested: 0.1 µg/ml to 1 µg/ml)”. For the same binder, the binding result [3] was “binds”, the binding result [4] was “no binding (tested: 5 ug/ml)” and the Kd [5] was 1.89 nM. It also gave a koff [5] of 0.00028 s⁻¹ and a kon [5] of 149000 M⁻¹ s⁻¹.

B2: CAN46G13 (antibody, V domains shown)
VH: B1 VH
VL: B1 VL
notes: also called CAN46G13-1-5; murine CAN46G13
In the case of B2, the binding result (bovine serum albumin) is reported as “no binding (tested: 2 µg/ml to 5 µg/ml)”, the “Mean EC50, neutralization of TcdB” value [1] is reported as 136 µg/mL and the binding result [2] is reported as “no binding (tested: 0.1 µg/ml to 1 µg/ml)”. The binding result [6] was “no binding (tested: 2 ug/ml)”, the binding result [7] was “binds” and the Kd [5] was 1.17 nM. For the same binder, the koff [5] was 0.000149 s⁻¹ and the kon [5] was 128000 M⁻¹ s⁻¹.

B3: CAN46G19 (antibody, V domains shown)
VH: B1 VH with S77T
VL: B1 VL with I2N, A9T, T13A, K18E, S22T
notes: also called CAN46G19-3-2; murine CAN46G19
With B3 the binding result (bovine serum albumin) was “no binding (tested: 2 µg/ml to 5 µg/ml)”, the “Mean EC50, neutralization of TcdB” value [1] was 142 µg/mL and the binding result [2] was “no binding (tested: 0.1 µg/ml to 1 µg/ml)”. For the same binder, the binding result [3] was “binds”, the binding result [8] was “no binding (tested: 2 ug/ml)” and the Kd [5] was 1.27 nM. It also gave a koff [5] of 0.000145 s⁻¹ and a kon [5] of 114000 M⁻¹ s⁻¹.

B4: rehuCAN46G19 (antibody, V domains shown)
VH: EVQLVQSGAEVVKPGESVKISCKASGYSFTGYYIHWVKQTPGQSLEWVGRIFPYNGAASYNQNFKGKATLTVDKSTTTAYMELSSLRSEDSAVYFCARWLRVYFDYWGQGTTLTVSS
VL: ENVLTQSPSSMSASVGDRVTMTCSASSSVTYMHWYQQKPGKSPKLWIYETSKLASGVPSRFSGSGSGNDYSLTISSMQPEDVATYYCFQGSGYPFTFGQGTKLEIK
B4 was tested, and the “antibody concentration giving 100% neutralization of toxin B on CT-26 cells, mAb from CHO (FIG. 25)” value [9] was roughly 0.3 µg/mL, the koff [10] was 0.00021 s⁻¹ and the kon [10] was 1.36e+06 M⁻¹ s⁻¹. For the same binder, the Kd [11] was 0.154 nM.

B5: rehuCAN46G24 (antibody, V domains shown)
VH: B4 VH with T77S
VL: B4 VL with N2I, A13T, T22S
For B5, the “antibody concentration giving 100% neutralization of toxin B on CT-26 cells, mAb from CHO (FIG. 25)” value [9] was roughly 0.3 µg/mL and the koff [12] was 1.2e-05 s⁻¹.

B6: CAN46G4 (antibody, V domains shown)
VH: B1 VH with T16A, G26D, I34M, T40S, V48I, G66D, F95Y, A97T
VL: B1 VL with I2K, T13A, K18E, S22T, T30S, I40S, S55F, I105V
notes: also called CAN46G4-1-2; murine CAN46G4
In the case of B6, the binding result (bovine serum albumin) is reported as “no binding (tested: 2 µg/ml to 5 µg/ml)”, the “Mean EC50, neutralization of TcdB” value [1] is reported as 142 µg/mL and the binding result [2] is reported as “no binding (tested: 0.1 µg/ml to 1 µg/ml)”. The binding result [3] was “binds”, the binding result [8] was “no binding (tested: 2 ug/ml)” and the Kd [5] was 1.41 nM. The koff [5] was 0.000101 s⁻¹ and the kon [5] was 71800 M⁻¹ s⁻¹.

B7: huCAN46G4 (antibody, V domains shown)
VH: EVQLLQSGAEVKKPGSSVKISCKASDYSFTGYYMHWVKQAPGQGLEWIGRIFPYNGAASYNQNFKDKATLTVDKSSSTAYMELHSLRSEDTAVYYCTRWLRVYFDYWGQGTLVTVSS
VL: EKVLTQSPATLSLSPGERATMTCSASSSVSYMHWYQQKPGTSPKLWIYETSKLAFGVPARFSGSGSGNSYSLTISSLEPEDFAVYYCFQGSGYPFTFGQGTRLEIK
For B7, the koff [13] was 0.000928 s⁻¹, the kon [13] was 590000 M⁻¹ s⁻¹ and the koff [14] was 0.000754 s⁻¹. The kon [14] was 2.12e+06 M⁻¹ s⁻¹.

B8: rehuCAN46G4 (antibody, V domains shown)
VH: B7 VH with K12V, D26G, V72A, S76T, S77N, H84S, T91S
VL: B7 VL with L13A, A19V, T22S, T41Q, N68T, S69D, L77M, V84T
B8 was tested, and the koff [10] was 0.000235 s⁻¹, the kon [10] was 590000 M⁻¹ s⁻¹ and the Kd [11] was 0.399 nM.

B9: CAN46G13a (antibody, V domains shown)
VH: DVQLQESGPGLVKPSQSLSLTCTVTGYSITSDSAWNWIRQFPGNNLEWMGYISYSGSTSYNPSLKSRISITRDTSKNQFFLQLNSVTTEDTATYYCARRSRVSFYFDYWGQGTTLTVSS
VL: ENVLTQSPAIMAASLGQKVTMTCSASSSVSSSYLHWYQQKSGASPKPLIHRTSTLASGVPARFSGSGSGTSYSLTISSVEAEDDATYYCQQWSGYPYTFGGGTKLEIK
notes: also called CAN46G13-1-8; murine CAN46G13a
B9: no binding (tested: 2 µg/ml to 5 µg/ml) (bovine serum albumin); no binding (tested: 0.1 µg/ml to 1 µg/ml) [2]; no binding (tested: 2 ug/ml) [15]. It also gave a koff [16] of 0.00357 s⁻¹, a kon [16] of 678000 M⁻¹ s⁻¹ and a koff [17] of 0.00598 s⁻¹. The kon [17] was 73700 M⁻¹ s⁻¹, the Kd [5] was 8.57 nM and the koff [5] was 0.00693 s⁻¹. The kon [5] was 808000 M⁻¹ s⁻¹.

B10: huCAN46G19 (antibody, V domains shown)
VH: B4 VH with V12K, I20V, T40A, S44G, T76S, S91T, L113V
VL: B4 VL with M11L, M21I, S42A, S59G, D69S, S71T, L72F, M77L, V82I, L103V
notes: also called HuCAN46G19-3-2
B10 was tested, and the Kd [18] was 0.178 nM.

B11: huCAN46G13a (antibody, V domains shown)
VH: B9 VH with D1Q, S17T, F80S, Q82K, L83V, T88A, E89A, T93V, T114L, L115V
VL: ENVLTQSPSSLSASVGDRVTMTCSASSSVSSSYLHWYQQKPGKSPKPLIHRTSTLASGVPSRFSGSGSGTSYSLTISSLQPEDIATYYCQQWSGYPYTFGGGTKVEIK
B11 gave a koff [10] of 0.000234 s⁻¹, a kon [10] of 552000 M⁻¹ s⁻¹ and a koff [12] of less than 1e-07 s⁻¹. The binding result [19] was “no binding (tested: 5 ug/mL)” and the Kd [11] was 0.423 nM.

B12: CAN33G1 (antibody, V domains shown)
VH: EVQLQQSGPDLVKPGASVKISCKASGYSFTGYYMHWVKQSHGKSLEWIGRVNPYNGDTNYNQNFKDKAILTVDKSASTAYMEFRSLTSEDSAVYYCTRSNWENYFDYWGQGSTLTVSS
VL: DIQLTQSSSSFSVSLGDRVTITCKASEDIYNRLAWYQQRPGNAPRLLISGATSLETGIPSRFSGSGSGKEYTLSIASLQTEDFVTYYCQQYWNIPTFGGGTRLEIK
notes: also called murine CAN33G1; CAN33 mAb
B12 was tested, and the binding result [20] was “no binding (tested: 0.5 ug/ml)”, the Kd [5] was 10.9 nM and the koff [5] was 0.000591 s⁻¹. It also gave a kon [5] of 54400 M⁻¹ s⁻¹.
